From US9745384B2, “Peptides useful for modulating histone demethylase function” (The Brigham and Women's Hospital, Inc., priority 2012, dated 2017) come the findings set out here.

Ends that are not written are not given here.

Assay [1] concerns CCND1 and CCNE1 expression. The assay is described as follows: CCND1 and CCNE1 expression in breast cancer cells. It counts as cell-based. The following applies: overexpression in cells (FIG. 25C). The source says: We first established stable MDA-MB-231 cell lines that express similar levels of the mutant or the wild-type full-length NPAC from cDNAs introduced with silent mutations and resistant to NPAC shRNA (data not shown). […] Thus, mutation of the LSD2-interacting residues F218, L219 and L291 of NPAC can disrupt LSD2 and NPAC functions in vivo.
We next examined if it is possible to use a small molecule to manipulate the interaction between NPAC and LSD2, thus affecting target gene expression. We have shown that a short mutant NPAC peptide (residues 214-225) can interact with LSD2 with high affinity, however, lost its cofactor activity. NPAC214-225.F217A is expected to be able to competitive inhibit the interaction between endogenous NPAC and LSD2, without stimulating LSD2 demethylase activity (FIG. 25A, right). […] Thus, unable to stimulate the histone demethylase activity of endogenous LSD2, this mutant peptide is a potent inhibitor of LSD2 function by competitively inhibiting LSD2 binding by endogenous NPAC.

Assay [2] concerns nucleosomes purified from HeLa. The assay is described as follows: Nucleosome pulldown by GST-NPAC proteins. It counts as binding. The procedure: Nucleosomes were purified from HeLa as previously described (Umlauf et al., 2004). To examine nucleosome binding selectivity of NPAC, 5 μg GST fusion protein bound to glutathione agarose were incubated with 20 μg nucleosomes overnight at 4° C. in nucleosome binding buffer (50 mM NaPO4 pH 7.4, 200 mM NaCl, 0.5% NP-40, 5% glycerol, 10 μM ZnSO4, 1 mM MgCl2, 1 mM DTT, 0.1 mM PMSF). After washing 4 times with the same buffer at 4° C., the beads were boiled in 1×SDS sample loading buffer and elute was resolved by 15% SDS-PAGE for immunoblot analysis or coomassie staining.
For free-DNA competition assays, human genomic DNA was purified from HeLa cells and fragmented to an average size around 300 bp by sonication. Equal amounts of GST-NPAC.d5 bound to glutathione beads were pre-incubated with 0, 5, 10, 25 μg genomic DNA fragments in nucleosome binding buffer for 30 minutes at room temperature, and equal amounts of nucleosomes were added and incubated overnight at 4° C. After extensive washing, GST-NPAC.d5 and bound nucleosomes were eluted by boiling in 1×SDS sample loading buffer, resolved by SDS-PAGE and stained with coomassie blue.

Assay [3] deals with T1, His-LSD2 (Homo sapiens, UniProt Q8NB78).
T1 construct: typically 0.5 μg full-length His-LSD2; made in house; host or cells: Sf9 insect cells
T1 sequence (Q8NB78 1-822): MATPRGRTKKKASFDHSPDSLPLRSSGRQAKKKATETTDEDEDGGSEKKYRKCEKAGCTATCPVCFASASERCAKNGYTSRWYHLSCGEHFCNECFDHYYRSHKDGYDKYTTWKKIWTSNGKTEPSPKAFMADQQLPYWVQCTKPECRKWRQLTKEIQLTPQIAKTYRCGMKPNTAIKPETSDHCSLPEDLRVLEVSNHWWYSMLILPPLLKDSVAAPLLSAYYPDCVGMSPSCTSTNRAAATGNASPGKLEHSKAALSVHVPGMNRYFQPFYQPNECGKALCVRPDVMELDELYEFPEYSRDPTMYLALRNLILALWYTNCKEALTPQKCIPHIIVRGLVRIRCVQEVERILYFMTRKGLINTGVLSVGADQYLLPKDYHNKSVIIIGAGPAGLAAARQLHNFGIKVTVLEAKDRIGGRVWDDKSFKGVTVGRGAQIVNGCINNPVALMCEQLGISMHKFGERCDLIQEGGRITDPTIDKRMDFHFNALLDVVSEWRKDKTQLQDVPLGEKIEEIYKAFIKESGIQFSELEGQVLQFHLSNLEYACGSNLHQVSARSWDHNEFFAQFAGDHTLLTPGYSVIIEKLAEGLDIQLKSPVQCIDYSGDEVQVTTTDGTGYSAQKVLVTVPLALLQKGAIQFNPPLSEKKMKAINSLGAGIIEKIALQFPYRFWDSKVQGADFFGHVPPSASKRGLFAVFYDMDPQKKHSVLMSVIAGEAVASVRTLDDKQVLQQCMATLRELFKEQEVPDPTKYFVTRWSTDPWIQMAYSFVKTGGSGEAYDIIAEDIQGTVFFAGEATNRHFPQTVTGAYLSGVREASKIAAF
The assay is described as follows: GST-pulldown of His-LSD2 by GST-NPAC proteins. It counts as binding. The following applies: coomassie blue staining. The protocol: […] GST or GST-NPAC fusion proteins were bound to glutathione agarose, and were incubated with 2 μg full-length His-LSD2 overnight in 50 mM NaPO4 pH 7.4, 150 mM NaCl, 0.5% NP-40, 5% glycerol, 10 μM ZnSO4, 1 mM MgCl2, 1 mM DTT, 0.1 mM PMSF at 4° C. After washed 4 times with same buffer at 4° C., glutathione agarose beads were boiled in 1×SDS sample loading buffer. Elute was resolved on a 15% SDS-PAGE gel and stained by coomassie blue.

In assay [4] the target is T1, His-LSD2. The assay is described as follows: Nucleosome demethylation assay (NPAC cofactor activity for LSD2, immunoblot). It counts as biochemical. The following applies: threshold dosage of His-LSD2; nucleosomes purified from HeLa. The protocol: For nucleosome demethylation assays, typically 0.5 μg full-length His-LSD2, 1 μg NPAC protein or peptides, and 2 μg nucleosomes purified from HeLa were used, and demethylation efficiency was analyzed by SDS-PAGE electrophoresis and immunoblot using methylation specific anti-histone H3 antibodies as previously described (Shi et al. 2004).
(A western blot detects proteins with antibodies after separation by electrophoresis.)

In another assay the test system is double strand DNA. The assay is described as follows: DNA binding assay (GST-pulldown). The protocol:
5-10 μg GST and GST-tagged NPAC truncation proteins were incubated with 1 μg linearized plasmid DNA overnight at 4° C. in 50 mM Tris pH 7.4, 200 mM NaCl, 0.2% NP-40, 1 mM MgCl2, 1 mM EDTA, 1 mM DTT, 0.02 mM ZnSO4. After extensive washing with the same buffer, bound DNA was eluted by incubating with 100 μl 10 mM Tris pH 8.0, 1% SDS for 15 minutes at 65° C. Pulldown DNA was purified using Qiagen PCR purification kit, resolved by agarose gel electrophoresis and stained with Ethidium Bromide.

With “GFP-NPAC214-225.F217A: GFP fusion of mutant NPAC peptide (residues 214-225) F217A, overexpressed in cells ({GFP}-DPHAHHFLLSQT; UniProt Q49A26 214-225, looked up, variant F217A)”, the “CCND1 and CCNE1 expression on ectopic expression of the peptide” value in assay [1] is “consistently down regulates CCND1 and CCNE1 expression”; in assay [1] (listed as NPAC.214-215.F217A peptide), “down regulates CCND1 and CCNE1 expression”.

B1: NPAC.d2: Example 2 GST-NPAC truncation, residues 1-250 (protein, UniProt Q49A26 1-250, looked up, fragment)
chain: MAAVSLRLGDLVWGKLGRYPPWPGKIVNPPKDLKKPRGKKCFFVKFFGTEDHAWIKVEQLKPYHAHKEEMIKINKGKRFQQAVDAVEEFLRRAKGKDQTSSHNSSDDKNRRNSSEERSRPNSGDEKRKLSLSEGKVKKNMGEGKKRVSSGSSERGSKSPLKRAQEQSPRKRGRPPKDEKDLTIPESSTVKGMMAGPMAAFKWQPTASEPVKDADPHFHHFLLSQTEKPAVCYQAITKKLKICEEETGSTS
modifications: GST tag
Turning to B1, the “Nucleosome binding (GST-pulldown)” value in assay [2] is “strong binding to nucleosomes”.

B2: NP.d8: NPAC residues 188-252 (protein)
chain: TVKGMMAGPMAAFKWQPTASEPVKDADPHFHHFLLSQTEKPAVCYQAITKKLKICEEETGSTSIQ
modifications: also: fused to dimerising Fc or GST
For B2, the “LSD2 binding (GST-pulldown)” value in the assay with His-LSD2 [3] is “sufficient for LSD2 interaction”. Besides, in the assay with His-LSD2 [4], the “Cofactor activity: stimulation of LSD2 demethylation of nucleosomal H3K4me2” value was “significantly enhances LSD2 histone demethylase activity on nucleosomal substrates”.

B3: NPAC.d4: Example 2 GST-NPAC truncation, residue 181-553 (protein, UniProt Q49A26 181-553, looked up, fragment)
chain: LTIPESSTVKGMMAGPMAAFKWQPTASEPVKDADPHFHHFLLSQTEKPAVCYQAITKKLKICEEETGSTSIQAADSTAVNGSITPTDKKIGFLGLGLMGSGIVSNLLKMGHTVTVWNRTAEKCDLFIQEGARLGRTPAEVVSTCDITFACVSDPKAAKDLVLGPSGVLQGIRPGKCYVDMSTVDADTVTELAQVIVSRGGRFLEAPVSGNQQLSNDGMLVILAAGDRGLYEDCSSCFQAMGKTSFFLGEVGNAAKMMLIVNMVQGSFMATIAEGLTLAQVTGQSQQTLLDILNQGQLASIFLDQKCQNILQGNFKPDFYLKYIQKDLRLAIALGDAVNHPTPMAAAANEVYKRAKALDQSDNDMSAVYRAYIH
modifications: GST tag
As to B3, in assay [2], the “Nucleosome binding (GST-pulldown)” value was “abolish the ability to interact with nucleosomes”.

B4: NPAC.d5: Example 2 GST-NPAC truncation, residues 1-120 (protein, UniProt Q49A26 1-120, looked up, fragment)
chain: MAAVSLRLGDLVWGKLGRYPPWPGKIVNPPKDLKKPRGKKCFFVKFFGTEDHAWIKVEQLKPYHAHKEEMIKINKGKRFQQAVDAVEEFLRRAKGKDQTSSHNSSDDKNRRNSSEERSRP
modifications: GST tag
In the case of B4, the “Nucleosome binding (GST-pulldown)” value in assay [2] is “can readily do so”. In addition, the “Nucleosome binding in the presence of increasing free double strand DNA” value in assay [2] (0, 5, 10, 25 μg genomic DNA fragments) was “compromised the nucleosome binding ability of NPAC.d5 in a dose dependent manner”. The “DNA binding (GST-pulldown)” value in the assay on double strand DNA is recorded as “pulls down DNA nearly as efficiently as NPAC.d1”.

B5: NPAC.d6: Example 2 GST-NPAC truncation, residues 1-81 (protein, UniProt Q49A26 1-81, looked up, fragment)
chain: MAAVSLRLGDLVWGKLGRYPPWPGKIVNPPKDLKKPRGKKCFFVKFFGTEDHAWIKVEQLKPYHAHKEEMIKINKGKRFQQ
modifications: GST tag
Consider B5, for which the “Nucleosome binding (GST-pulldown)” value in assay [2] is “failed to interact with nucleosomes”. Further, the “DNA binding (GST-pulldown)” value in the assay on double strand DNA is “unable to interact with DNA”.

B6: NPAC.d3: Example 2 GST-NPAC truncation, residue 81-553 (protein, UniProt Q49A26 81-553, looked up, fragment)
chain: QAVDAVEEFLRRAKGKDQTSSHNSSDDKNRRNSSEERSRPNSGDEKRKLSLSEGKVKKNMGEGKKRVSSGSSERGSKSPLKRAQEQSPRKRGRPPKDEKDLTIPESSTVKGMMAGPMAAFKWQPTASEPVKDADPHFHHFLLSQTEKPAVCYQAITKKLKICEEETGSTSIQAADSTAVNGSITPTDKKIGFLGLGLMGSGIVSNLLKMGHTVTVWNRTAEKCDLFIQEGARLGRTPAEVVSTCDITFACVSDPKAAKDLVLGPSGVLQGIRPGKCYVDMSTVDADTVTELAQVIVSRGGRFLEAPVSGNQQLSNDGMLVILAAGDRGLYEDCSSCFQAMGKTSFFLGEVGNAAKMMLIVNMVQGSFMATIAEGLTLAQVTGQSQQTLLDILNQGQLASIFLDQKCQNILQGNFKPDFYLKYIQKDLRLAIALGDAVNHPTPMAAAANEVYKRAKALDQSDNDMSAVYRAYIH
modifications: GST tag
Regarding B6, the “Nucleosome binding (GST-pulldown)” value in assay [2] is on record as “abolish the ability to interact with nucleosomes”.

B7: NP.d9: NP.d3 with deletion of amino acids 214-222 (protein)
chain: SERGSKSPLKRAQEQSPRKRGRPPKDEKDLTIPESSTVKGMMAGPMAAFKWQPTASEPVKDASQTEKPAVCYQAITKKLKICEEETGSTSIQ
modifications: left off: a dimerising Fc or GST; small tags and cut ends
As for B7, the “LSD2 binding (GST-pulldown)” value in the assay with His-LSD2 [3] is on record as “completely abolishes LSD2 binding”. Further, in the assay with His-LSD2 [4], the “Cofactor activity: stimulation of LSD2 demethylation of nucleosomal H3K4me2” value is “but not NP.d7 or NP.d9, significantly enhances LSD2 histone demethylase activity”.
